Common to all, as to assay: IEDB peptide-MHC binding, purified MHC/competitive/fluorescence; filed as Kd, often an IC50 or EC50 that approximates it; ≥ and ≤ were set here for values at or beyond the usual limits of such assays
What all share (conditions): source organism: Entamoeba histolytica HM-1:IMSS

In assay [1] the target is HLA-B*44:02.
Assay [2] has as its target HLA-A*02:11.
Assay [3] addresses HLA-A*02:12.
In assay [4] the target is HLA-B*39:01.
In assay [5] the target is HLA-B*08:01.
Assay [6] addresses HLA-B*58:01.
In assay [7] the target is HLA-A*24:03.
In assay [8] the target is HLA-A*03:01.

Where only a bound is given, the exact number is not on record here.

Usually Kd stands for a measure of binding affinity in units of concentration. Low readings indicate higher affinity, high ones lower affinity.

With EVIRATYPS, the Kd in assay [1] is at least 5 µM; in assay [2] it was at least 20 µM; in assay [3], at least 20 µM; in assay [4] it was at least 20 µM; in assay [5] it was at least 5 µM; in assay [6], at least 5 µM. For the same sequence, the Kd in assay [7] and in assay [8] was at least 20 µM each time.
